Protease stability score data for 47 sequences are collected here from the NTF2 design screens of Basanta et al. (2020).

This data set is described as follows: protease stability score; higher = more stable; yeast display proteolysis, trypsin and chymotrypsin.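 Also: log10 excess protease needed over predicted unfolded state with 0 meaning unfolded.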

The sequence “DDDAARQFEEVMKAVEHGDPHQVEELVDPNATFNVGDKRWHGMRENMQEHISRFQSINMTVEIKRVEDTNGRAKFEASVTRNDNGKPDTFTVEIVVRVHNGEIKEVQLNNTK” returned a protease stability score of 0.158.
The sequence “DDDADRRARKLDQARKEGDPDKMRKNMDPNVRMQIGDQEWSGRETIANKLATDLKRMDIEITIKRYTWHNGTADIDADETFNVDGRPNSDKVRMEVHFHNGRVEHQILRVPEEFKHRLHK” yielded a protease stability score of -0.115.
Under “DDDAIKRFHEQVDNEQHNNEEEQEKNVDPNATVNVGDKTYHGREKWREVVKRENEEMRVKYQHVTFRRHPGRVIVRFRIVNDHNGKPTETDVNANYQMHNGRIRQVNRRTDG” stands 0.162.
Under “DDDALRRAKEMDDQIKNGNEHEYQKMVDPNAREHIGDTTYSGRENLVKLVRDRRRHMREKVDITEMESSGDKLRIVYRAEQEHNGQPRKKRRRKVIRLSNGRVQEVKVVDDQ” stands 0.4.
Under “DDDALRRLEELWSALEEGDESRVNRNIDPNARLKIGDTTIHGREKLAESLVRDWKEIKLEIEFKTLEAHNGQARLEAIEHFRINGRPEQINFRMQMHQRNGNVDEIVIEMDPDQQRKKES” stands -0.133; under “DDDAMRKAHEFYTAYNTNDEDTLSKQFDPNARIRYGDEVIHGREQLKKWMEEIQREMSVSVRVKSMKVRGDEIHIKFDMTVDINGNPLEFDAQAEFRFRNGKFIDFTLQIPEEAQKQEHG”, 0.704.
As to “DDDAQNTLSDRINLIKQGNKEEVDKQADPNATVQVGDKKVQGREEIRRWIKHVKDQLNVQIEIKHVEAQGNKVRIDASFRARINGKPVRIRFILIADMHNGRFKRVVMHLDEDQQRKYEK”, the protease stability score was determined as 0.943.
As for “DDDAQRIAEDIQNALRKGDPERLNHLVDKNVKFVIGDKTIHGREDAAKQWHTMNRQMRIEVEMKHWDQQGNEVTIVARFVYEHNGRPETKRITRTITFHNGRAKEVVQKDDS”, the figure is 0.09.
As for “DDDAQRRLEDQLKQIEEGNPEQIRNQVDPNATLRYGDKTIQGREEIVKWWKRIRDESRIQFHLKSMEVSGDQVRVVFNLVVKHNGKPSHSQVVVTLRFHNGKVTEVSMQHTS”, the figure is 1.71; as for “DDDAQRRVKTYFNLLLTGNPENLKNQVDEDVRVEIGDKEIRGSDQVAHHARQLHTEMRIHARIDDMKVQGDHIRVEVRLYFERNGQPRTKNLRASVRWHNGKMKEFVVKNDD”, 0.682.
The sequence “DDDAQRVLNEFWRHWRRGNEEELKKLVDPNAQFEVGNKTFHGREHYANYLRRVSEEMTFDINIKDMSVEGDQVVIDATIMVQVNGNPISIKVIWRANATNGKIKYLSLQIDEDMVRQQQS” registered a protease stability score of 0.445.
Consider “DDDARDLMKEVLTAQKNNDPKHVRKLFDPNANIKYGDREVTGMDHAAKTLVDHIQQIRLQIDSVTLEVQGDTIIVHAQMVNDRNGNPDSTRFVLEAKVDGDKFKSQDKQEDS”, for which the protease stability score is -0.524.
Under “DDDARERVDELLEVEQTGNREDIKRLVDPNAKVQVGDDEYHGMEVYAETVVKKRKEINIELRFKDMQVHNGRANADVEAVYDHNGRPSRMRFVLHFVIRNGKFKEIRLREDR” stands 1.2; under “DDDARRVINDALEAMNSNNESQLAHLFDPNATFEVGDREIHGRDDFREWVRQMQEEMRFSVSVRDVQERPNHVKFDVEYEEEKNGNPDKHRAVLKARARNGKITELKLDNHK”, 0.075; under “DDDASRRFHEFVKLVRTNNPHKAMEMVDPNARFHIGDKEIHGREDVRRWVSRMLREARVTIDLKSLDVQGEKVKVTNLVRRRHNGEPQQMSVHAQVVWHNGKIKQETAHFKG”, 0.127.
As for “DDDATKVVKEFLSALKTNNPDRARELIDKDVRVRVGDKEIHGREQLITHIETDLKKIRIEIKHMHIDVTGEDIIIHQVFVDEHNGRPHTQTVVVFIEMNNGRVKNVRSETSS”, the figure is 0.322; as for “DDDAVRKARELQKAYDHGDEQKVRDLADPNARVRVGDKKLHGMEDIAHTLAERDKQIDNTVRVDRITAHNGRVDANLRMRNNNNGRPNNFELDLKVVVDNGNIVDVDRQNNR”, -0.207.
As for “DDDAVRKLRELIKAVKDGDPSRAKELMDPNAEIVVGDHYIRGMDNFDKEIDRQKKEARVEYRLKRVRHDENHIKVDAEVIFNVNGRPVTFKLKMRVKLHNGKMIEVEQQVDESSIERVKS”, the figure is 1.01; as for “DDDAVRLFKEELKAEKNNNPDKIRELADPNARFKVGDKTVHGRESWARTVETRAREIRNDIDVKSYDNDNGRADIKMTVHQEENGRPQHNEASANITADNGRLKEVQIHSRP”, -0.356; as for “DDDAVRQAQENLKAIEDGDEDKVRNLMDPNAQVNIGDKTIHGMEEFMRQMKRKLDEIRVDYEDIKIDKQGDKARLDATWRQDDNGEPHSMKVDVDVKFRNGKIVDWQQQYDG”, -0.149.
In turn, “DDDAVRQVHTFWRILERGNSDRATEMLDENARVEVGDRSLHGREKIVTQQYRLYTQARIEVERYSAQDHGNKVHAFVLVVVHVNGTPHRFTVDVNFVFQNGRFKSIHLQVSEEQLRQEER” had a protease stability score of 0.604.
Under “DDDAVRRMKEFEEAKQHGDPDELRRLADPNVRLEYGDKEIHGRDTMAQTLKNEVDEIRMEVDFRHFTSQGDKVSIQAEQSRDNNGQPQSVKAQFDARFHNGRLKHLRVQLDG” stands 0.114; under “DDDDLKRITEFLKNEQKGNSEELRKLADPNATFQIGDKTIKGRDKFANEAKKRRDEMHFQYKSVHMRDHNGVAVFSVTWILDHNGKPEENTFTLQAKLTNGKIKMLRLQSRK”, -0.012; under “DDDDMKLAEEFAQAISTGDHNRVEENADKDARFDIGDKVVNGNHQRATEVKKEQDDQKVSVDINSMDATGNKVVAEINVDINNNGHPETQEHILHFTQDNGKIRHMEVKDDQ”, -0.685.
Sequence “DDDDNKTAQDRMRTNDFTTLARHAPEDAHAQIGDTTVTGRRKLEEIVVKFREQVDHMEIKDIRTSGEKVFIDLHATFDGHTVRLVIEVEVKNGRLQKLFFRVTDPERAKEIVEQLD” came in with a protease stability score of 0.362.
As for “DDDDQLRSMIKSYNDNFQRGDFVRLLKMAPPDVKIRIGEDEISGREKANEFATRLEEEVDQVEAEIKSVTAHNGKASADILVEVNHNGETKHFTIEVHFDLQNGEVHLTEVVYK”, the figure is 0.79; as for “DDDEARHRAEEIVRQMQSNNWKDIDKLMDKNVQIRVGDKRYTGRTRARKFIKTIADRVDHAHVVNVTVQGNKARFEFIARFDGEHVRMQMVFELHNGHAKKVEVDPEELKQLKK”, 1.04; as for “DDDEARKALQWFSTGDPDKLKKNVDENAKVQIGDKEYQGRDQAATALVKLQKRVDHVEIKHVSIDGDDVVVDLVLNVDGHEVRFTNEFRVENGKFQDVHINVTNEEDEKILKRVLG”, 0.932.
Under “DDDEIEKIARQLVKALQKGDFKHFVELMDKDVRLEYGDKEVHGREQAKQAMKELAERVDHVQLDDYKVHNGTAEIRLKLNFNGKSADVVFDMRIEDGRVKKIVIRYRSEEHRKHIDT” stands 1.24; under “DDDEIRRLAKRVVKALHDGDPDEMMRLADENAKIDVGDHRIRGREQLRDFVKQLTEDVDHIRIHDYRVTPNHARVVVVVDHNGQKSTFVVEAHMDNGTIKSMRFHER”, 0.462.
Under “DDDEMHKLVEHAIKAWETGDHKKAMDLIDPNAKVDVGDREIHGREEFSHHVREINKKVDRVDVQDYKVRGNKAQVRMQFNVNGQTVVVNLVFVMSNGRLSRVQIDVTDPDKFRSAQS” stands 0.138; under “DDDEMRELIKSIEEVLTDGDPDEFLKQIDPNAKAQYGDTRVSGSEEIRKMAEKFSDRVDHVDVRDIKVSGDTATFDMQIDHNGRNDTVIMIVEAHNGKVKHVQYHKG”, 0.142; under “DDDEMRKLLTRLADNYKHNDPNKLAEQMDPDVEIEIGDKTYHGRENVMKHWKEQHERVDHVNIQHLDAQGENLVMTFNVTVNGKHVTVRIIFNVKNGRIKSVIVDPDDIKKLEG”, 1.48.
For “DDDENKNVLKRVVDILRTGDDKKMQKLADPNARLIVGDKTYHGREDMMHWVKELKQDVDHMKVEQIEVRGERARAILVAEVNGQQRRYLLIITVHNGRLKQMEVRSQ”, the protease stability score is 1.91.
As for “DDDEVRKAMRAVTNFFKGNPDQVMELIDPNAHIQVGDKSVTGREQARHLVKDVKEEQQFDVQSVDARDHGSKIVINVRFEVRHNGQPREKFMVLEMSVHNGKIQEMRVRTDS”, the figure is 0.946.
In turn, “DDDEVRKIREFMHVMSRGDSNRAMEMADPNAHFKVGDKTINGRESFKSWLRKQREEIHVQIDDVTNTSEPGHVEVNADVTFEHNGQPDRVTLIMIARLKNGRITFLEIRRKK” came in with a protease stability score of 1.33.
As for “DDDEVRKLVHNLERGNFDDFVRQADPNAKVTIGNKTYHGREDIKSAYKKLKDQVDHLEVKRVRHHNGRLNVERIVVVNGRNIRYHVRLTIHNGRIKHIRYQATNEEQQKWMDEVIK”, the figure is 0.559.
As for “DDDHARRLAERFIKAFQKGDEERAKDLAPPDVKVHVGDTQYNGREQMKQAVKDFRERVDHLSVETIKVRNGRVEVHATANINGVEVNVVFTFVFRNGKMKSMDLKYRDEEAHRNWTS”, the figure is 1.19; as for “DDDHATEIAKRMIDNFTTGNEENVKRLVDPNATVRIGDKRFHGRDHIRDAIRQIKERIDHIQVRTFTAHNGRIRITAEVKINGQSKEIHIELRIHNGHVVFFQLNVRNEEEWKTALS”, 1.05.
Under “DDDHLRKVEDFMRAQLEGDPDRLKQLADPNVRMNVGEKKVHGMQDIATEQASTYKTARYEIKSLDSKTEGDKVVITMRVQADNNGQPHDETFHLKARLENGKIVEQSKENDG” stands -0.529; under “DDDKAKEIARQVWHAIREGDEDEAKRQFDKNARVVYGDKTVHGKEQAARMVHEWRRRIDHLEINDMKVDGNSVHVVFRYVHNGRERTQVVRIELDNGRVKNAEFTDQ”, 1.46.
“DDDKDRKIAEEITKLLKHGNPDELARQADPNVRLEVGDHVYHGRHQMVEWVKHFWERADHLRIKDVTTRPGHVDLVATLRFDGKEAEFKVTFEFHNGRLKRVEVDPEFQKQIDS” displayed a protease stability score of 1.56.
Under “DDDKERKARKFAEIYMHGDWRKAHQYADPNVRIKVGDKTFQGRESLAKLVESLRKEQRLEMKRVEARVTNGRINLHLRFVVQKNGTPSHRRIHFDARMHNGKLKEMTENDKR” stands 0.115.
As for “DDDKIRKDAETFVKILETGNQERAQRMFDENAHMRIGDKTYHGRESVHKAIKTIRDEVDHVQVRHIDIQGEEVIIQMRFDHNGNQDIMTINLVIKNGRIKSATYTRP”, the figure is 0.537.
Under “DDDKKAHKFFSEMLTAIQTGNEDQLRHLVDKDAHINVGDDVITGRENIVETWREKRERVDDLDAKVDSYHVHNGRIEIRAKESSTKNGKSDSRDFRIQARLTNGHVKLQKKEQN” stands -0.348; under “DDDKKAKNWMERMLHIFREGDEDSYKNNFDENAEINIGDKTYHGRDRVQRLFSEIKHNVDHLKIQFQDFSTHNGRWVLIFEYSRTHNGHTEQNVIVVNMEQHNGKVVVKSMREK”, 0.636; under “DDDKQRKVEQVNRAWNEGDEETWKNNFDPNARVNVGEFNYEGMEEISKNIRDQKEQWRIEFKRMDLNMHGNKATAHFEATTNHNGNPDEFRKRLEAEFQGDRLKHMRVTEDR”, -0.235.
